# Laboratory results taken from publication PMC6555833, “APC/C^CDH1 synchronizes ribose-5-phosphate levels and DNA synthesis to cell cycle progression” (Nature Communications, 2019).
# T1: purified recombinant TKT (human, UniProt P29401 1-623)
# T1 chain: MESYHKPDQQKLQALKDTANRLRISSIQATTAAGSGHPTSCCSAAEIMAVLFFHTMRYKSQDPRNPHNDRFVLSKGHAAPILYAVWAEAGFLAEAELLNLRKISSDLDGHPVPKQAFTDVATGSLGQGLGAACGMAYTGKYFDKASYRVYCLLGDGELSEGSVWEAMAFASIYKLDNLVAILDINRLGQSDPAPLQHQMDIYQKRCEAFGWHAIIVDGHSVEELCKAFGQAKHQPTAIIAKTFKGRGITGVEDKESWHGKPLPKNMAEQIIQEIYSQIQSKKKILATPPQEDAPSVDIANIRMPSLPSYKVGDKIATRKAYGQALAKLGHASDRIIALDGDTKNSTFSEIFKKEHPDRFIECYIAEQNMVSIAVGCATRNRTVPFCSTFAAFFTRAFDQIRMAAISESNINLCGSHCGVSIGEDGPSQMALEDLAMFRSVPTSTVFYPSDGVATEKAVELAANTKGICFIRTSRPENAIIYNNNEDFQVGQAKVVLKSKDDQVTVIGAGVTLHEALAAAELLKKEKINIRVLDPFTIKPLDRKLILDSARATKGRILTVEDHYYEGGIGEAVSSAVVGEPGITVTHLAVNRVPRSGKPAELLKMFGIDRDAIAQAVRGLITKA
# B1: purified recombinant TKTL1 (natural protein, human, UniProt P51854 1-596, looked up)
# chain: MADAEARAEFPEEARPDRGTLQVLQDMASRLRIHSIRATCSTSSGHPTSCSSSSEIMSVLFFYIMRYKQSDPENPDNDRFVLAKRLSFVDVATGWLGQGLGVACGMAYTGKYFDRASYRVFCLMSDGESSEGSVWEAMAFASYYSLDNLVAIFDVNRLGHSGALPAEHCINIYQRRCEAFGWNTYVVDGRDVEALCQVFWQASQVKHKPTAVVAKTFKGRGTPSIEDAESWHAKPMPRERADAIIKLIESQIQTSRNLDPQPPIEDSPEVNITDVRMTSPPDYRVGDKIATRKACGLALAKLGYANNRVVVLDGDTRYSTFSEIFNKEYPERFIECFMAEQNMVSVALGCASRGRTIAFASTFAAFLTRAFDHIRIGGLAESNINIIGSHCGVSVGDDGASQMALEDIAMFRTIPKCTIFYPTDAVSTEHAVALAANAKGMCFIRTTRPETMVIYTPQERFEIGQAKVLRHCVSDKVTVIGAGITVYEALAAADELSKQDIFIRVIDLFTIKPLDVATIVSSAKATEGRIITVEDHYPQGGIGEAVCAAVSMDPDIQVHSLAVSGVPQSGKSEELLDMYGISARHIIVAVKCMLLN
# notes: wild-type transketolase-like protein 1 (TKTL1), human; in vector pSJ3; also called TKTL1 monomer; source: E. coli BL21 (DE3)pLysS, purified (nickel column)
# B2: purified recombinant TKT (natural protein, human, UniProt P29401 1-623, looked up)
# chain: T1 chain
# notes: wild-type transketolase (TKT), human; in vector pSJ3; also called TKT homodimer; TKT-TKT; source: E. coli BL21 (DE3)pLysS, purified (nickel column)
# Experiments:
# purified recombinant TKT [1] = target: B2; assay: SPR; Biacore T200; TKT amine-coupled to a CM5 chip in 10 mM sodium acetate pH 5.5; TKTL1 in a series of concentrations starting at 65.9 nM; PBS buffer; conditions: both partners purified
# purified recombinant TKT [2] = target: T1, purified recombinant TKT; assay: SPR
# [3] = target: the molecule itself; assay: SPR; Biacore T200; TKT immobilised on a CM5 chip; constant of the TKT-TKT homodimer; the analyte series is not described
# [4] = target: the molecule itself; assay: native gel or EMSA; native gel electrophoresis of TKT, TKTL1-TKT and TKTL1
# SPR = target: the molecule itself; assay: SPR
Kd (purified recombinant TKT [1]),koff (purified recombinant TKT [2]),Binder,Kd [3],stoichiometry N [4],koff (SPR)
146 nM,0.0044 s⁻¹,B1,–,–,–
–,–,B2,118 nM,2,0.00777 s⁻¹
